# Reference: patent publication US20200377588A1, “Highly Versatile Method of Presenting Cyclic Peptide on Protein Structure” (The University of Tokyo, priority 2017, published 2020)
# T1: Plexin B1-PA (Homo sapiens, UniProt O43157)
# T1 construct: made in house; host or cells: Expi293F cells (secreted, culture supernatant)
# T1 sequence (O43157 20-1490 limits assumed): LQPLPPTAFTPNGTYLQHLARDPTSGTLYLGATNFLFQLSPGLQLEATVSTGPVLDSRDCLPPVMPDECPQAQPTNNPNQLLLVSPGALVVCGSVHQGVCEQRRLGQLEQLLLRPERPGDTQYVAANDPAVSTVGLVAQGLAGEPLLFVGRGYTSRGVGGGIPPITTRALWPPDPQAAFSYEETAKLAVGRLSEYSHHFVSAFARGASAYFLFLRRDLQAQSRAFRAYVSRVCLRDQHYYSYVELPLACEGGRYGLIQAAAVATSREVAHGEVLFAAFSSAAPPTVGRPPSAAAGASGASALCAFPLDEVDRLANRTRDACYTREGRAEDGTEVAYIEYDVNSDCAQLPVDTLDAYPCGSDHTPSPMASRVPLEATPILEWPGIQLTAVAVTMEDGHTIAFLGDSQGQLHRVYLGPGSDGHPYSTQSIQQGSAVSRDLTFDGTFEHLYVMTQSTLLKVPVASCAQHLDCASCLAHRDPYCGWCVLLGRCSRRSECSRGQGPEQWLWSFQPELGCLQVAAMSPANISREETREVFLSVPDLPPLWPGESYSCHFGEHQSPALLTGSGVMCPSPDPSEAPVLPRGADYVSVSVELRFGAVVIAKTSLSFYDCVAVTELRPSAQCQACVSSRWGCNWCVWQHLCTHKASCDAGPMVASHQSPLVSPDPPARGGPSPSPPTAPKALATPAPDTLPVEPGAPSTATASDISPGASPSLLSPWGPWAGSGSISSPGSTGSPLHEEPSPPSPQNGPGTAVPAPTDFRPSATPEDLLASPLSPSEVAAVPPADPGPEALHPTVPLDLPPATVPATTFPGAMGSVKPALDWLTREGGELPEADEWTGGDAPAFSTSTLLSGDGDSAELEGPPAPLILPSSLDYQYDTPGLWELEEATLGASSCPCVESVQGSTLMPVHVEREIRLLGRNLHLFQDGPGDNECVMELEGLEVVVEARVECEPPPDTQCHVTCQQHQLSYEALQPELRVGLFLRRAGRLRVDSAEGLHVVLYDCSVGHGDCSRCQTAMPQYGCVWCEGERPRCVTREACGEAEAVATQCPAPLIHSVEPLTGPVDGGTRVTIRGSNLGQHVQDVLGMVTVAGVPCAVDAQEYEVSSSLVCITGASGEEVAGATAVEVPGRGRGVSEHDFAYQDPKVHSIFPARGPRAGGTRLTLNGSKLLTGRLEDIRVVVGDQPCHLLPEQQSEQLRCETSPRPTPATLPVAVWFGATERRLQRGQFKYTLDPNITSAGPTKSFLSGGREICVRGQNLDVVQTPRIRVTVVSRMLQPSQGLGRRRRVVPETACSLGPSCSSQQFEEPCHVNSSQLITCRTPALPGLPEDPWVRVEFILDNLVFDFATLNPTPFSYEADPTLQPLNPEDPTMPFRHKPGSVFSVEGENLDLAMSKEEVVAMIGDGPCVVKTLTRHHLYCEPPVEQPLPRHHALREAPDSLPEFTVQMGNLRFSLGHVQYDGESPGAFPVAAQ
# T2: Plexin B1-Fc (Homo sapiens, UniProt O43157)
# T2 construct: Protein A Sepharose that had captured a soluble receptor fragment Plexin B1-Fc therein
# T2 sequence (O43157 20-1490 limits assumed): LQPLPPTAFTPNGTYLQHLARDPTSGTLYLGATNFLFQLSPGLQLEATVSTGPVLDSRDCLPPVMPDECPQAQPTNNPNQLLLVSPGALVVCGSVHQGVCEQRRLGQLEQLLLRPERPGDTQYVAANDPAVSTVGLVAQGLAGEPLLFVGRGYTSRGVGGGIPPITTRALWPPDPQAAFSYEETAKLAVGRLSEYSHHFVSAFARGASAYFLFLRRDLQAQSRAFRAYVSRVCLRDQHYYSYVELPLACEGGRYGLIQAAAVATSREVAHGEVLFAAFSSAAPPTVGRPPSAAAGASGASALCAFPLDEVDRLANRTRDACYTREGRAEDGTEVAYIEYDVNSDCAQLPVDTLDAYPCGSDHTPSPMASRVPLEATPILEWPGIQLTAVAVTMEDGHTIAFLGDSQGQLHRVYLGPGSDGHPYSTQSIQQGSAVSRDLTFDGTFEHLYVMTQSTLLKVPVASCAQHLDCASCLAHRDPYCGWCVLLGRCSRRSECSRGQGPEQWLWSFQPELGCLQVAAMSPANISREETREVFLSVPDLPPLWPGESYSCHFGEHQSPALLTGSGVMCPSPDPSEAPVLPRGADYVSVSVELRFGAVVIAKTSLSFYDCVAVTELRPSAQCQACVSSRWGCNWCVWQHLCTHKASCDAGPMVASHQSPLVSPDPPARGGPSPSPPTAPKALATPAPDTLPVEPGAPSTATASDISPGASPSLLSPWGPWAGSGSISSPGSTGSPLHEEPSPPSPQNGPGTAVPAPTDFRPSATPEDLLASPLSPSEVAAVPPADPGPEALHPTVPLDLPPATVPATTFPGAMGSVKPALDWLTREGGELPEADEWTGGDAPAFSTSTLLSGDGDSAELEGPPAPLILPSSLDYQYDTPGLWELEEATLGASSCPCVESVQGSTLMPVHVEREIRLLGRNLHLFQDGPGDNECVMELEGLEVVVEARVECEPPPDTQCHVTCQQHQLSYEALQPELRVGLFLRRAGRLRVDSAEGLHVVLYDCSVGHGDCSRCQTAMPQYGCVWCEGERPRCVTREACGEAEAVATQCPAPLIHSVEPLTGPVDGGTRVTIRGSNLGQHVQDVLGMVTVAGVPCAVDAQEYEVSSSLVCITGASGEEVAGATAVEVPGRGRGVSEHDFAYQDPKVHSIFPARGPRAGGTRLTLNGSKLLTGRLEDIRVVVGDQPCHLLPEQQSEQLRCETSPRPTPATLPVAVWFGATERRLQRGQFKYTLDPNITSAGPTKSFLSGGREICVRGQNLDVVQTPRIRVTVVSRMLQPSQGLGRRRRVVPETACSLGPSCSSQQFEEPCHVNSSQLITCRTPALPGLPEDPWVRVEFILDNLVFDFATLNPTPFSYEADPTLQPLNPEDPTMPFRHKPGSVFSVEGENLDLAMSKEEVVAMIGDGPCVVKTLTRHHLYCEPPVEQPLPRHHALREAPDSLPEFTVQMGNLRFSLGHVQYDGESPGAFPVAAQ
# B1: PLAP: full-length human placental alkaline phosphatase with Myc and Hisx6 tags, no cyclic peptide fused; control (protein, UniProt P05187 1-535, looked up)
# chain: MLGPCMLLLLLLLGLRLQLSLGIIPVEEENPDFWNREAAEALGAAKKLQPAQTAAKNLIIFLGDGMGVSTVTAARILKGQKKDKLGPEIPLAMDRFPYVALSKTYNVDKHVPDSGATATAYLCGVKGNFQTIGLSAAARFNQCNTTRGNEVISVMNRAKKAGKSVGVVTTTRVQHASPAGTYAHTVNRNWYSDADVPASARQEGCQDIATQLISNMDIDVILGGGRKYMFRMGTPDPEYPDDYSQGGTRLDGKNLVQEWLAKRQGARYVWNRTELMQASLDPSVTHLMGLFEPGDMKYEIHRDSTLDPSLMEMTEAALRLLSRNPRGFFLFVEGGRIDHGHHESRAYRALTETIMFDDAIERAGQLTSEEDTLSLVTADHSHVFSFGGYPLRGSSIFGLAPGKARDRKAYTVLLYGNGPGYVLKDGARPDVTESESGSPEYRQQSAVPLDEETHAGEDVAVFARGPQAHLVHGVQEQTFIAHVMAFAACLEPYTACDLAPPAGTTDAAHPGRSVVPALLPLLAGTLLLLETATAP
# modifications: full-length Myc and His6 tags
# notes: full-length human placental alkaline phosphatase with Myc and Hisx6 tags, no cyclic peptide fused; control
# How the values were obtained:
# Met-PA = target: T3, Met-PA (Homo sapiens, UniProt P08581); assay: pull-down type binding experiment, Met-PA captured on NZ-1 Sepharose, SDS-PAGE; conditions: Example 1, Fn10-Fc mutants, culture supernatant, FIG. 5
# T3 construct: made in house; host or cells: Expi293F cells (secreted, culture supernatant)
# Plexin B1-PA = target: T1, Plexin B1-PA; assay: pull-down type binding experiment, Plexin B1-PA captured on NZ-1 Sepharose, SDS-PAGE
# Protocol: (§1) A pull-down type binding experiment was performed to study whether or not Fn10-Fc having various cyclic peptides fused therein retained its binding ability, which the cyclic peptides had before fusion, to binding molecules. In accordance with the method described in Protein Exp. Purification, 2014, 95, 240-247, respective constructs encoding fusion proteins having a PA tag (product of Wako Pure Chemical Industries) added to the C terminus of an extracellular region of four binding molecules (each, single-pass membrane receptor) were created and the resulting constructs were each incorporated in an expression vector pcDNA3.1 (product of Thermo Fisher Scientific). After transient expression in Expi293F cells by the above-described method while using the vector, respective culture supernatants containing Plexin B1-PA, Met-PA, EGFR-PA, and TrkB-PA, which were soluble receptor fragments, were prepared.
# (§2) To 0.5 mL of the culture supernatant containing the PA-tag added receptor extracellular region, 30 μL of Sepharose (product of Wako Pure Chemical Industries) on which NZ-1, an anti-PA tag antibody, was immobilized and the resulting mixture was mixed by rotation for 2 hours to capture the binding molecule on Sepharose. […]
# EGFR-PA = target: T4, EGFR-PA (Homo sapiens, UniProt P00533); assay: pull-down type binding experiment, EGFR-PA captured on NZ-1 Sepharose, SDS-PAGE; conditions: Example 1, Fn10-Fc mutants, culture supernatant, FIG. 5
# T4 construct: made in house; host or cells: Expi293F cells (secreted, culture supernatant)
# Protocol: as §1, §2
# TrkB-PA = target: T5, TrkB-PA (Homo sapiens, UniProt Q16620); assay: pull-down type binding experiment, TrkB-PA captured on NZ-1 Sepharose, SDS-PAGE; conditions: Example 1, Fn10-Fc mutants, culture supernatant, FIG. 5
# T5 construct: made in house; host or cells: Expi293F cells (secreted, culture supernatant)
# Protocol: as §1, §2
# Plexin B1-Fc = target: T2, Plexin B1-Fc; assay: pulldown, Plexin B1-Fc captured on protein A-Sepharose, SDS-PAGE; format: binding; conditions: Example 7, PLAP mutants, FIG. 27
# From the text: It is to be noted, however, that for the mP6-9 peptide fusion protein, not Plexin B1-PA but Plexin B1-Fc protein was used as a binding molecule and as pulldown beads, not NZ-1-Sepharose but protein A-Sepharose was used.
# Met-Fc = target: T6, Met-Fc (Homo sapiens, UniProt P08581); assay: pulldown, Met-Fc captured on Protein A Sepharose, SDS-PAGE; format: binding; conditions: Example 7, PLAP mutants, FIG. 27
# T6 construct: captured a soluble receptor fragment Plexin B1-Fc or Met-Fc therein
# From the text: Binding of the resulting cyclic peptide fusion protein (PLAP mutant) to Protein A Sepharose that had captured a soluble receptor fragment Plexin B1-Fc or Met-Fc therein by the method described above I Example 1 was studied by the pulldown method.
# T6 sequence (P08581 25-932 limits assumed): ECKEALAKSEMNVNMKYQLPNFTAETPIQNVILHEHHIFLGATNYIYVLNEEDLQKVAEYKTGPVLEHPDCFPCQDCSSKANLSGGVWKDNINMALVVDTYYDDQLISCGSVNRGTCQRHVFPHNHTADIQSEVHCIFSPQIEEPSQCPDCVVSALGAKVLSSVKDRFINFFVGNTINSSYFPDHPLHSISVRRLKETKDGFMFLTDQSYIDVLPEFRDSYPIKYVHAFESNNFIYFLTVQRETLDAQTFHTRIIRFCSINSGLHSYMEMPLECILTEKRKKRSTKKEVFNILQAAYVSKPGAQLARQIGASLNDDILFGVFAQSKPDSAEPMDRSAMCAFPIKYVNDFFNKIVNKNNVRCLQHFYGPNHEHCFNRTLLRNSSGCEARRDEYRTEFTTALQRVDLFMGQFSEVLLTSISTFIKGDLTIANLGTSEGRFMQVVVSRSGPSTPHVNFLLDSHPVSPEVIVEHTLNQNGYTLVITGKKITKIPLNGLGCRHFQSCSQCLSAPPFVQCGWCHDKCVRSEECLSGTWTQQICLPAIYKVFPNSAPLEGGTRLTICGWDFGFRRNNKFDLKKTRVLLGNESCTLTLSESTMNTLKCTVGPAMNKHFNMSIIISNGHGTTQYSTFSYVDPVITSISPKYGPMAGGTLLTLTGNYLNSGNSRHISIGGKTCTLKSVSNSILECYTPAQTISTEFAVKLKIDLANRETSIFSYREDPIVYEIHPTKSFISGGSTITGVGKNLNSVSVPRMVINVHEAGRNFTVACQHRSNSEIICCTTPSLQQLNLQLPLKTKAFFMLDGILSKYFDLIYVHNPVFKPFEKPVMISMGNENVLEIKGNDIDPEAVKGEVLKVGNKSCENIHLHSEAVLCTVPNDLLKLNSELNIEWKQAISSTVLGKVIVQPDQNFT
# T3 sequence (P08581 25-932 limits assumed): as above
molecule,measurement,setting,value
"Fn10-Fc: tenth Type III repeat domain of human fibronectin (residues 1418 to 1509) fused to human IgG1 Fc, no peptide inserted; control",binding to Met-PA (pulldown),Met-PA,did not show a binding property
same,binding to Plexin B1-PA (pulldown),"Plexin B1-PA; Example 1, Fn10-Fc mutants, culture supernatant, FIG. 5",did not show a binding property
same,binding to EGFR-PA (pulldown),EGFR-PA,did not show a binding property
same,binding to TrkB-PA (pulldown),TrkB-PA,did not show a binding property
"hGH: full-length human growth hormone with Hisx8 tag and TEV site, no cyclic peptide fused; control",binding to Plexin B1-PA (pulldown),"Plexin B1-PA; Example 5, hGH mutants, FIG. 20B",does not bind to Plexin B1-PA
B1,binding to Plexin B1-Fc (pulldown),Plexin B1-Fc,does not bind
same,binding to Met-Fc (pulldown),Met-Fc,does not bind
